Data taken from patent US20150203577A1 (Chugai, published 2015).

T1: mouse FcγRIII extracellular domain, C-terminally His-tagged (mouse, UniProt P08508 31-215)
T1 construct: the whole entry is named; also called mFcγRIII; mFcgRIII
T1 chain: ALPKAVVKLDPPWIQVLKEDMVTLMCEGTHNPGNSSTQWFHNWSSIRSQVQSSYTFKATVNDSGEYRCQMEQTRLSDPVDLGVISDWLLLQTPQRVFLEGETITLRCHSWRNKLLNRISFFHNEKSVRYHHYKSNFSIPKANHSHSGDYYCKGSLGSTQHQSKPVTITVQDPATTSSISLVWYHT

T2: mouse FcγRII extracellular domain, C-terminally His-tagged (mouse, UniProt P08101 30-210)
T2 construct: the whole entry is named; also called mFcγRII; mFcgRII
T2 sequence: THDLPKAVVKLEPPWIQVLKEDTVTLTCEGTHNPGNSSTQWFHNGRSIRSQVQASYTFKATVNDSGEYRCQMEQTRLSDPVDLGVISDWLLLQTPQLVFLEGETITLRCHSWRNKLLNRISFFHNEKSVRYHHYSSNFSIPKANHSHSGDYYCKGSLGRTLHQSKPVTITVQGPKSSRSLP


Key:
[1] = biological target: T1, mouse FcγRIII extracellular domain, …; experiment: SPR Biacore T200, KD ratio
Experimental: (§1) Each altered antibody was analyzed for its interaction with each Fcγ receptor prepared above using Biacore T100 (GE Healthcare Japan Corp.), Biacore T200 (GE Healthcare Japan Corp.), Biacore A100, or Biacore 4000. The running buffer used was HBS-EP+ (GE Healthcare Japan Corp.). The assay temperature was set to 25° C. The sensor chips used were chips prepared by immobilizing Protein L (ACTIGEN or BioVision) onto Series S Sensor Chip CM5 (GE Healthcare Japan Corp.) or Series S Sensor Chip CM4 (GE Healthcare Japan Corp.) by the amine coupling method.
(§2) In order to calculate the KD value of each altered antibody for FcγR, kinetic analysis was conducted according to the following method: first, the antibody of interest was captured onto any of these chips and allowed to interact with mFcγR diluted with a running buffer. For the obtained sensorgram, the assay results were globally fit into the 1:1 Langmuir binding model using Biacore Evaluation Software to calculate an association rate constant ka (L/mol/s) and a dissociation rate constant kd (1/s). From these values, the dissociation constant KD (mol/L) was calculated.

[2] = biological target: T2, mouse FcγRII extracellular domain, …; experiment: SPR Biacore T200, KD ratio
Experimental: as §1, §2

relative mFcγRIII-binding activity (mIgG1 = 1) [1] [fold] | relative mFcγRII-binding activity (mIgG1 = 1) [2] [fold] | Binder
0.08 | 0.75 | H237-MB638/MRAL-k0 (antibody, mouse IgG1, kappa, copies: 2 + 2) heavy: QVQLQESGPGLVKPSETLSLTCAVSGHSISHDHAWSWVRQPPGEGLEWIGFISYSGITNYNPSLQGRVTISRDNSKNTLYLQMNSLRAEDTAVYYCARSLARTTAMDYWGEGTLVTVSSAKTTPPSVYPLAPGSAAQTNSMVTLGCLVKGYFPEPVTVTWNSGSLSSGVHTFPAVLQSDLYTLSSSVTVPSSTWPSETVTCNVAHPASSTKVDKKIVPRDCGCKPCICIPAEVENVFIFPPKPKDVLTITLTPKVTCVVVDISKDDPEVQFSWFVDDVEVHTAQTQPREEQFNSTFRSVSELPIMHQDWLNGKEFKCRVNSAAFPAPIEKTISKTKGRPKAPQVYTIPPPKEQMAKDKVSLTCMITDFFPEDITVEWQWNGQPAENYKNTQPIMDTDGSYFVYSKLNVQKSNWEAGNTFTCSVLHEGLHNHHTEKSLSHSPGK light: not shown
0.14 | 1.66 | H237-MB643/MRAL-k0 (antibody, mouse IgG1, kappa, copies: 2 + 2) heavy: QVQLQESGPGLVKPSETLSLTCAVSGHSISHDHAWSWVRQPPGEGLEWIGFISYSGITNYNPSLQGRVTISRDNSKNTLYLQMNSLRAEDTAVYYCARSLARTTAMDYWGEGTLVTVSSAKTTPPSVYPLAPGSAAQTNSMVTLGCLVKGYFPEPVTVTWNSGSLSSGVHTFPAVLQSDLYTLSSSVTVPSSTWPSETVTCNVAHPASSTKVDKKIVPRDCGCKPCICENYEVEYVFIFPPKPKDVLTITLTPKVTCVVVDISKDDPEVQFSWFVDDVEVHTAQTQPREEQFNSTFRSVSELPIMHQDWLNGKEFKCRVNSAAFPAPIEKTISKTKGRPKAPQVYTIPPPKEQMAKDKVSLTCMITDFFPEDITVEWQWNGQPAENYKNTQPIMDTDGSYFVYSKLNVQKSNWEAGNTFTCSVLHEGLHNHHTEKSLSHSPGK light: not shown
0.15 | 2.6 | H237-MB637/MRAL-k0 (antibody, mouse IgG1, kappa, copies: 2 + 2) heavy: QVQLQESGPGLVKPSETLSLTCAVSGHSISHDHAWSWVRQPPGEGLEWIGFISYSGITNYNPSLQGRVTISRDNSKNTLYLQMNSLRAEDTAVYYCARSLARTTAMDYWGEGTLVTVSSAKTTPPSVYPLAPGSAAQTNSMVTLGCLVKGYFPEPVTVTWNSGSLSSGVHTFPAVLQSDLYTLSSSVTVPSSTWPSETVTCNVAHPASSTKVDKKIVPRDCGCKPCICEPAEVENVFIFPPKPKDVLTITLTPKVTCVVVDISKDDPEVQFSWFVDDVEVHTAQTQPREEQFNSTFRSVSELPIMHQDWLNGKEFKCRVNSAAFPAPIEKTISKTKGRPKAPQVYTIPPPKEQMAKDKVSLTCMITDFFPEDITVEWQWNGQPAENYKNTQPIMDTDGSYFVYSKLNVQKSNWEAGNTFTCSVLHEGLHNHHTEKSLSHSPGK light: not shown

Continued, binder first:

Binder | relative mFcγRIII-binding activity (mIgG1 = 1) [1] [fold] | relative mFcγRII-binding activity (mIgG1 = 1) [2] [fold]
H237-MB634/MRAL-k0 (antibody, mouse IgG1, kappa, copies: 2 + 2) heavy: QVQLQESGPGLVKPSETLSLTCAVSGHSISHDHAWSWVRQPPGEGLEWIGFISYSGITNYNPSLQGRVTISRDNSKNTLYLQMNSLRAEDTAVYYCARSLARTTAMDYWGEGTLVTVSSAKTTPPSVYPLAPGSAAQTNSMVTLGCLVKGYFPEPVTVTWNSGSLSSGVHTFPAVLQSDLYTLSSSVTVPSSTWPSETVTCNVAHPASSTKVDKKIVPRDCGCKPCICENYEVENVFIFPPKPKDVLTITLTPKVTCVVVDISKDDPEVQFSWFVDDVEVHTAQTQPREEQFNSTFRSVSELPIMHQDWLNGKEFKCRVNSAAFPAPIEKTISKTKGRPKAPQVYTIPPPKEQMAKDKVSLTCMITDFFPEDITVEWQWNGQPAENYKNTQPIMDTDGSYFVYSKLNVQKSNWEAGNTFTCSVLHEGLHNHHTEKSLSHSPGK light: not shown | 0.21 | 2.52
H237-MB640/MRAL-k0 (antibody, mouse IgG1, kappa, copies: 2 + 2) heavy: QVQLQESGPGLVKPSETLSLTCAVSGHSISHDHAWSWVRQPPGEGLEWIGFISYSGITNYNPSLQGRVTISRDNSKNTLYLQMNSLRAEDTAVYYCARSLARTTAMDYWGEGTLVTVSSAKTTPPSVYPLAPGSAAQTNSMVTLGCLVKGYFPEPVTVTWNSGSLSSGVHTFPAVLQSDLYTLSSSVTVPSSTWPSETVTCNVAHPASSTKVDKKIVPRDCGCKPCICQPNEVENVFIFPPKPKDVLTITLTPKVTCVVVDISKDDPEVQFSWFVDDVEVHTAQTQPREEQFNSTFRSVSELPIMHQDWLNGKEFKCRVNSAAFPAPIEKTISKTKGRPKAPQVYTIPPPKEQMAKDKVSLTCMITDFFPEDITVEWQWNGQPAENYKNTQPIMDTDGSYFVYSKLNVQKSNWEAGNTFTCSVLHEGLHNHHTEKSLSHSPGK light: not shown | 0.18 | 1.06
H237-MB639/MRAL-k0 (antibody, mouse IgG1, kappa, copies: 2 + 2) heavy: QVQLQESGPGLVKPSETLSLTCAVSGHSISHDHAWSWVRQPPGEGLEWIGFISYSGITNYNPSLQGRVTISRDNSKNTLYLQMNSLRAEDTAVYYCARSLARTTAMDYWGEGTLVTVSSAKTTPPSVYPLAPGSAAQTNSMVTLGCLVKGYFPEPVTVTWNSGSLSSGVHTFPAVLQSDLYTLSSSVTVPSSTWPSETVTCNVAHPASSTKVDKKIVPRDCGCKPCICEPNEVENVFIFPPKPKDVLTITLTPKVTCVVVDISKDDPEVQFSWFVDDVEVHTAQTQPREEQFNSTFRSVSELPIMHQDWLNGKEFKCRVNSAAFPAPIEKTISKTKGRPKAPQVYTIPPPKEQMAKDKVSLTCMITDFFPEDITVEWQWNGQPAENYKNTQPIMDTDGSYFVYSKLNVQKSNWEAGNTFTCSVLHEGLHNHHTEKSLSHSPGK light: not shown | 0.38 | 4.91
H237-MB635/MRAL-k0 (antibody, mouse IgG1, kappa, copies: 2 + 2) heavy: QVQLQESGPGLVKPSETLSLTCAVSGHSISHDHAWSWVRQPPGEGLEWIGFISYSGITNYNPSLQGRVTISRDNSKNTLYLQMNSLRAEDTAVYYCARSLARTTAMDYWGEGTLVTVSSAKTTPPSVYPLAPGSAAQTNSMVTLGCLVKGYFPEPVTVTWNSGSLSSGVHTFPAVLQSDLYTLSSSVTVPSSTWPSETVTCNVAHPASSTKVDKKIVPRDCGCKPCICETYEVENVFIFPPKPKDVLTITLTPKVTCVVVDISKDDPEVQFSWFVDDVEVHTAQTQPREEQFNSTFRSVSELPIMHQDWLNGKEFKCRVNSAAFPAPIEKTISKTKGRPKAPQVYTIPPPKEQMAKDKVSLTCMITDFFPEDITVEWQWNGQPAENYKNTQPIMDTDGSYFVYSKLNVQKSNWEAGNTFTCSVLHEGLHNHHTEKSLSHSPGK light: not shown | 0.29 | 5.06
H237-MB641/MRAL-k0 (antibody, mouse IgG1, kappa, copies: 2 + 2) heavy: QVQLQESGPGLVKPSETLSLTCAVSGHSISHDHAWSWVRQPPGEGLEWIGFISYSGITNYNPSLQGRVTISRDNSKNTLYLQMNSLRAEDTAVYYCARSLARTTAMDYWGEGTLVTVSSAKTTPPSVYPLAPGSAAQTNSMVTLGCLVKGYFPEPVTVTWNSGSLSSGVHTFPAVLQSDLYTLSSSVTVPSSTWPSETVTCNVAHPASSTKVDKKIVPRDCGCKPCICEAYEVEYVFIFPPKPKDVLTITLTPKVTCVVVDISKDDPEVQFSWFVDDVEVHTAQTQPREEQFNSTFRSVSELPIMHQDWLNGKEFKCRVNSAAFPAPIEKTISKTKGRPKAPQVYTIPPPKEQMAKDKVSLTCMITDFFPEDITVEWQWNGQPAENYKNTQPIMDTDGSYFVYSKLNVQKSNWEAGNTFTCSVLHEGLHNHHTEKSLSHSPGK light: not shown | 0.13 | 1.47
H237-MB636/MRAL-k0 (antibody, mouse IgG1, kappa, copies: 2 + 2) heavy: QVQLQESGPGLVKPSETLSLTCAVSGHSISHDHAWSWVRQPPGEGLEWIGFISYSGITNYNPSLQGRVTISRDNSKNTLYLQMNSLRAEDTAVYYCARSLARTTAMDYWGEGTLVTVSSAKTTPPSVYPLAPGSAAQTNSMVTLGCLVKGYFPEPVTVTWNSGSLSSGVHTFPAVLQSDLYTLSSSVTVPSSTWPSETVTCNVAHPASSTKVDKKIVPRDCGCKPCICEVYEVENVFIFPPKPKDVLTITLTPKVTCVVVDISKDDPEVQFSWFVDDVEVHTAQTQPREEQFNSTFRSVSELPIMHQDWLNGKEFKCRVNSAAFPAPIEKTISKTKGRPKAPQVYTIPPPKEQMAKDKVSLTCMITDFFPEDITVEWQWNGQPAENYKNTQPIMDTDGSYFVYSKLNVQKSNWEAGNTFTCSVLHEGLHNHHTEKSLSHSPGK light: not shown | 0.14 | 4.41
H237-MB642/MRAL-k0 (antibody, mouse IgG1, kappa, copies: 2 + 2) heavy: QVQLQESGPGLVKPSETLSLTCAVSGHSISHDHAWSWVRQPPGEGLEWIGFISYSGITNYNPSLQGRVTISRDNSKNTLYLQMNSLRAEDTAVYYCARSLARTTAMDYWGEGTLVTVSSAKTTPPSVYPLAPGSAAQTNSMVTLGCLVKGYFPEPVTVTWNSGSLSSGVHTFPAVLQSDLYTLSSSVTVPSSTWPSETVTCNVAHPASSTKVDKKIVPRDCGCKPCICEDYEVEYVFIFPPKPKDVLTITLTPKVTCVVVDISKDDPEVQFSWFVDDVEVHTAQTQPREEQFNSTFRSVSELPIMHQDWLNGKEFKCRVNSAAFPAPIEKTISKTKGRPKAPQVYTIPPPKEQMAKDKVSLTCMITDFFPEDITVEWQWNGQPAENYKNTQPIMDTDGSYFVYSKLNVQKSNWEAGNTFTCSVLHEGLHNHHTEKSLSHSPGK light: not shown | 0.08 | 1.87
